{"source": "patent US20240218070A1", "about": "(MERUS N V, published 2024)", "binders": {"B1": {"name": "anti-human FAP bivalent monospecific IgG comprising heavy chain variable region SEQ ID NO: 69 (antibody, V domains shown)", "VH": "EVQLVETGGGLIQPGGSLRLSCAASGFTVSSNYMSWVRQAPGKGLEWVSVIYSGGSTYYADSVKGRFTISRDNSKNTLYLQMNSLRAEDTAVYYCARGPTDAYPYLDYLWGQGTLVTVSS", "VL": "not shown", "notes": "IgG1 format, common light chain VK1-39/JK1; also called human/mouse cross-reactive FAP IgG"}, "B2": {"name": "anti-human FAP bivalent monospecific IgG comprising heavy chain variable region SEQ ID NO: 11 (antibody, V domains shown)", "VH": "EVQLVESGGGLVQPGGSLRLSCAASGFTFSSYAMIWVRQAPGKGLEWVSAISGSGGYTFNADSVKGRFTMSRDNSKNTLYLQMNSLRAEDTAVYYCAKRDGGYEGGAFDIWGQGTLVTVSS", "VL": "not shown", "notes": "IgG1 format, common light chain VK1-39/JK1"}, "B3": {"name": "anti-human FAP bivalent monospecific IgG comprising heavy chain variable region SEQ ID NO: 19 (antibody, V domains shown)", "VH": "EVQLVESGGGLVKPGGSLRLSCAASGFPFNYAWMSWVRQAPGKGLEWVGRIKPKTSGGATDYAAPVKDRFTISRDDSRNTLYLQMNSLKTEDTAVYYCSAREDIWNFFFDLWGQGTLVTVSS", "VL": "not shown", "notes": "as for B2"}, "B4": {"name": "anti-human FAP bivalent monospecific IgG comprising heavy chain variable region SEQ ID NO: 15 (antibody, V domains shown)", "VH": "QLQLQESGPGLVKPSETLSLTCTVSGGSISSSSYFWAWIRQPPGKGLEFIGNIYYSGSTYYNPSLKSRVTISVDTSKNQFSLKLSSVTAADTAVYYCARPSYYGSGNYYFAFWGQGTLVTVSS", "VL": "not shown", "notes": "as for B2"}}, "molecular_target": "T1, cynomolgus FAP (cyFAP) expressed on 293FF cells (cynomolgus, UniProt Q12884 1-760 (human entry))", "T1 sequence": "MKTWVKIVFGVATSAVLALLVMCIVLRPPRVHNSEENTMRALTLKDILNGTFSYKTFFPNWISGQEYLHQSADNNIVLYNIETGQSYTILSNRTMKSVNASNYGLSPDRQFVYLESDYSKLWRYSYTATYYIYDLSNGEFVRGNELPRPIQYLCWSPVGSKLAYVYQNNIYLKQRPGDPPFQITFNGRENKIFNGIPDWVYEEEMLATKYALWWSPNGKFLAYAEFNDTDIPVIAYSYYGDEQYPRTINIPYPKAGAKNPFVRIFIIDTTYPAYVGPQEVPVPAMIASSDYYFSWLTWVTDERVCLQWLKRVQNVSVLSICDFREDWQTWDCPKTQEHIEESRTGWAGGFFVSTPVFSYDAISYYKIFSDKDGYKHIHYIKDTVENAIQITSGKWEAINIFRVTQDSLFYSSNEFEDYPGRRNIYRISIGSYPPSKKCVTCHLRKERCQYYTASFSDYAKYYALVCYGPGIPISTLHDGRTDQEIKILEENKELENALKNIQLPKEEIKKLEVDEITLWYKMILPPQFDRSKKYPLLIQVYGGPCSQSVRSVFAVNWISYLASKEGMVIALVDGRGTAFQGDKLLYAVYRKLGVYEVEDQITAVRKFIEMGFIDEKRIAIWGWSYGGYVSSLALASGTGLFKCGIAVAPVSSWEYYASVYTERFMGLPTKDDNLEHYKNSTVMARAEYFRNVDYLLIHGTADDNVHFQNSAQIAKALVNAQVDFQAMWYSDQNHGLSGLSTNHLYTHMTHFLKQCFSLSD", "test": "FACS, 293FF cells stably expressing cyFAP, IgG at 2.5 ug/ml", "experimental": "The binding of all test and control antibodies to the cells was tested at a single concentration of 2.5 ug/ml. Goat-anti-human IgG F(ab)2-PE (Invitrogen, H10104) was used as secondary antibody (1:100 in FACS buffer). Ab0625 was used at 10 ug/ml and its binding was detected using Ab0250 (Becton Dickinson, 550767) (1:100 in FACS buffer). The FACS buffer containing PBS (Gibco, cat. #10010-015), 0.5% BSA (Thermo Scientific, cat. #37525), and 2 mM EDTA (Invitrogen, cat. #15575-020) was kept ice cold throughout the assay.\nThe target cells were harvested, counted, and centrifuged for 5 min at 300 g at 4 °C. Cells were then resuspended in FACS buffer at a concentration of 1×10⁶ cells/ml and transferred (200,000 cells/well) to a U-bottom 96-well FACS plate (BD, cat. #353910). Cells were then centrifuged for 3 min at 300 g at 4° C. and supernatant was discarded. 50 μl of primary antibody solutions were added to the cells, mixed, and incubated for 30 min at 2-8° C. in the dark. Cells were washed by adding 150 μl FACS buffer and centrifuged for 3 min at 300 g at 4° C. Supernatant was discarded, and cells were washed again by adding 200 μl FACS buffer to the plate. Cells were then centrifuged for 3 min at 300 g at 4° C. and afterwards the supernatant was discarded. 50 μl of secondary antibody solutions were added to the cells, mixed, and incubated for 30 min at 2-8° C. in the dark. Cells were then washed by adding 150 μl FACS buffer to the plate and centrifuged for 3 min at 300 g at 4° ° C. Supernatant was discarded and cells were washed again by adding 200 μl FACS buffer to the plate and centrifuged for 3 min at 300 g at 4° C. Supernatant was discarded and cells were fixated by adding 100 μl/well ice-cold Fixation buffer (2% formaldehyde solution in PBS, Sigma-Aldrich, cat. #47608-250ML-F). Cells were incubated for 15 min on ice in the dark. Afterwards, 100 μl ice-cold PBS was added to the cells and cells were centrifuged for 3 at 300 g at 4° C. Supernatant was discarded and cells were resuspended in 120 μl FACS buffer."}
{"binder": "B1", "values": [{"measurement": "binding result", "value": "binds"}]}
{"binder": "B2", "values": [{"measurement": "binding result", "value": "binds"}]}
{"binder": "B3", "values": [{"measurement": "binding result", "value": "binds"}]}
{"binder": "B4", "values": [{"measurement": "binding result", "value": "binds"}]}
